Source: US20170266254A1 (AILERON THERAPEUTICS, published 2017)
Bridges are numbered along the chain shown (N, C = ends). [ ]: non-standard residue; d: D form. S5 = C=CCCC[C@](C)(N)C(=O)O; Nle = CCCC[C@H](N)C(=O)O

T1: C-terminally 6x Histidine-tagged Beta-Catenin (aa 134-668, 59 KD) (UniProt P35222 134-668)
T1 construct: range 134-668; Armadillo repeat region
T1 sequence: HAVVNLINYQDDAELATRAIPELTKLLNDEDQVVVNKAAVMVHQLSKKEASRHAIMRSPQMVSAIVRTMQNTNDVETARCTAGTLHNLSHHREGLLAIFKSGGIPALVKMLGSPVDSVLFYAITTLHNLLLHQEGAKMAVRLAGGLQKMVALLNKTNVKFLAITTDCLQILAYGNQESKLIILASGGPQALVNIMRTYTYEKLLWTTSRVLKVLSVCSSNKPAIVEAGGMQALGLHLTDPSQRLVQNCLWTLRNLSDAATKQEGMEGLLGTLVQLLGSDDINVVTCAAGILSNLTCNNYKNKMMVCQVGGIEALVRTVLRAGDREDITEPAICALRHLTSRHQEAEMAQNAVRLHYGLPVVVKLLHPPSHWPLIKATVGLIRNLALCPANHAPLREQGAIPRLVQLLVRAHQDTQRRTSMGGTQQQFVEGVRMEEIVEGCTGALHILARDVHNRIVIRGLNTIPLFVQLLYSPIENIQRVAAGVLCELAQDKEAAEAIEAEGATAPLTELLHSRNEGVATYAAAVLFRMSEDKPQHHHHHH

B1: SP34 (peptide)
peptide: Ac-RDLANVK[S5]S[Nle]V[S5]ES-NH2
modifications: staple 8-12
SMILES: CCCC[C@@H]1NC(=O)[C@H](CO)NC(=O)[C@@](C)(NC(=O)[C@H](CCCCN)NC(=O)[C@@H](NC(=O)[C@H](CC(N)=O)NC(=O)[C@H](C)NC(=O)[C@H](CC(C)C)NC(=O)[C@H](CC(=O)O)NC(=O)[C@H](CCCNC(=N)N)NC(C)=O)C(C)C)CCCC=CCCC[C@@](C)(C(=O)N[C@@H](CCC(=O)O)C(=O)N[C@@H](CO)C(N)=O)NC(=O)[C@H](C(C)C)NC1=O
notes: also called Ac-RDLANVK$SNleV$ES-NH2
B2: SP35 (peptide)
peptide: Ac-RGLANVK[S5]SLV[S5]ES-NH2
modifications: staple 8-12
SMILES: CC(=O)N[C@@H](CCCNC(=N)N)C(=O)NCC(=O)N[C@@H](CC(C)C)C(=O)N[C@@H](C)C(=O)N[C@@H](CC(N)=O)C(=O)N[C@H](C(=O)N[C@@H](CCCCN)C(=O)N[C@@]1(C)CCCC=CCCC[C@@](C)(C(=O)N[C@@H](CCC(=O)O)C(=O)N[C@@H](CO)C(N)=O)NC(=O)[C@H](C(C)C)NC(=O)[C@H](CC(C)C)NC(=O)[C@H](CO)NC1=O)C(C)C
notes: also called Ac-RGLANVK$SLV$ES-NH2
B3: SP32 (peptide)
peptide: Ac-RDLANVI[S5]SLV[S5]ES-NH2
modifications: staple 8-12
SMILES: CC[C@H](C)[C@H](NC(=O)[C@@H](NC(=O)[C@H](CC(N)=O)NC(=O)[C@H](C)NC(=O)[C@H](CC(C)C)NC(=O)[C@H](CC(=O)O)NC(=O)[C@H](CCCNC(=N)N)NC(C)=O)C(C)C)C(=O)N[C@@]1(C)CCCC=CCCC[C@@](C)(C(=O)N[C@@H](CCC(=O)O)C(=O)N[C@@H](CO)C(N)=O)NC(=O)[C@H](C(C)C)NC(=O)[C@H](CC(C)C)NC(=O)[C@H](CO)NC1=O
notes: also called Ac-RDLANVI$SLV$ES-NH2
B4: SP2 (peptide)
peptide: Ac-RDLADVK[S5]SLV[S5]ES-NH2
modifications: staple 8-12
SMILES: CC(=O)N[C@@H](CCCNC(=N)N)C(=O)N[C@@H](CC(=O)O)C(=O)N[C@@H](CC(C)C)C(=O)N[C@@H](C)C(=O)N[C@@H](CC(=O)O)C(=O)N[C@H](C(=O)N[C@@H](CCCCN)C(=O)N[C@@]1(C)CCCC=CCCC[C@@](C)(C(=O)N[C@@H](CCC(=O)O)C(=O)N[C@@H](CO)C(N)=O)NC(=O)[C@H](C(C)C)NC(=O)[C@H](CC(C)C)NC(=O)[C@H](CO)NC1=O)C(C)C
notes: also called Ac-RDLADVK$SLV$ES-NH2
B5: SP4 (peptide)
peptide: Ac-RNLADVK[S5]SLV[S5]ES-NH2
modifications: staple 8-12
SMILES: CC(=O)N[C@@H](CCCNC(=N)N)C(=O)N[C@@H](CC(N)=O)C(=O)N[C@@H](CC(C)C)C(=O)N[C@@H](C)C(=O)N[C@@H](CC(=O)O)C(=O)N[C@H](C(=O)N[C@@H](CCCCN)C(=O)N[C@@]1(C)CCCC=CCCC[C@@](C)(C(=O)N[C@@H](CCC(=O)O)C(=O)N[C@@H](CO)C(N)=O)NC(=O)[C@H](C(C)C)NC(=O)[C@H](CC(C)C)NC(=O)[C@H](CO)NC1=O)C(C)C
notes: also called Ac-RNLADVK$SLV$ES-NH2
B6: SP33 (peptide)
peptide: Ac-RDLANVV[S5]SLV[S5]ES-NH2
modifications: staple 8-12
SMILES: CC(=O)N[C@@H](CCCNC(=N)N)C(=O)N[C@@H](CC(=O)O)C(=O)N[C@@H](CC(C)C)C(=O)N[C@@H](C)C(=O)N[C@@H](CC(N)=O)C(=O)N[C@H](C(=O)N[C@H](C(=O)N[C@@]1(C)CCCC=CCCC[C@@](C)(C(=O)N[C@@H](CCC(=O)O)C(=O)N[C@@H](CO)C(N)=O)NC(=O)[C@H](C(C)C)NC(=O)[C@H](CC(C)C)NC(=O)[C@H](CO)NC1=O)C(C)C)C(C)C
notes: also called Ac-RDLANVV$SLV$ES-NH2
B7: SP9 (peptide)
peptide: Ac-RDL[S5]NVK[S5]SLVNES-NH2
modifications: staple 4-8
SMILES: CC(=O)N[C@@H](CCCNC(=N)N)C(=O)N[C@@H](CC(=O)O)C(=O)N[C@@H](CC(C)C)C(=O)N[C@@]1(C)CCCC=CCCC[C@@](C)(C(=O)N[C@@H](CO)C(=O)N[C@@H](CC(C)C)C(=O)N[C@H](C(=O)N[C@@H](CC(N)=O)C(=O)N[C@@H](CCC(=O)O)C(=O)N[C@@H](CO)C(N)=O)C(C)C)NC(=O)[C@H](CCCCN)NC(=O)[C@H](C(C)C)NC(=O)[C@H](CC(N)=O)NC1=O
notes: also called Ac-RDL$NVK$SLVNES-NH2
B8: SP11 (peptide)
peptide: Ac-SAERDLA[S5]VKS[S5]LVNESEKR-NH2
modifications: staple 8-12
SMILES: CC(=O)N[C@@H](CO)C(=O)N[C@@H](C)C(=O)N[C@@H](CCC(=O)O)C(=O)N[C@@H](CCCNC(=N)N)C(=O)N[C@@H](CC(=O)O)C(=O)N[C@@H](CC(C)C)C(=O)N[C@@H](C)C(=O)N[C@@]1(C)CCCC=CCCC[C@@](C)(C(=O)N[C@@H](CC(C)C)C(=O)N[C@H](C(=O)N[C@@H](CC(N)=O)C(=O)N[C@@H](CCC(=O)O)C(=O)N[C@@H](CO)C(=O)N[C@@H](CCC(=O)O)C(=O)N[C@@H](CCCCN)C(=O)N[C@@H](CCCNC(=N)N)C(N)=O)C(C)C)NC(=O)[C@H](CO)NC(=O)[C@H](CCCCN)NC(=O)[C@H](C(C)C)NC1=O
B9: SP13 (peptide)
peptide: Ac-SAERDLADVKS[S5]LVN[S5]SEKR-NH2
modifications: staple 12-16
SMILES: CC(=O)N[C@@H](CO)C(=O)N[C@@H](C)C(=O)N[C@@H](CCC(=O)O)C(=O)N[C@@H](CCCNC(=N)N)C(=O)N[C@@H](CC(=O)O)C(=O)N[C@@H](CC(C)C)C(=O)N[C@@H](C)C(=O)N[C@@H](CC(=O)O)C(=O)N[C@H](C(=O)N[C@@H](CCCCN)C(=O)N[C@@H](CO)C(=O)N[C@@]1(C)CCCC=CCCC[C@@](C)(C(=O)N[C@@H](CO)C(=O)N[C@@H](CCC(=O)O)C(=O)N[C@@H](CCCCN)C(=O)N[C@@H](CCCNC(=N)N)C(N)=O)NC(=O)[C@H](CC(N)=O)NC(=O)[C@H](C(C)C)NC(=O)[C@H](CC(C)C)NC1=O)C(C)C
B10: SP10 (peptide)
peptide: Ac-SAERDL[S5]DVK[S5]SLVNESEKR-NH2
modifications: staple 7-11
SMILES: CC(=O)N[C@@H](CO)C(=O)N[C@@H](C)C(=O)N[C@@H](CCC(=O)O)C(=O)N[C@@H](CCCNC(=N)N)C(=O)N[C@@H](CC(=O)O)C(=O)N[C@@H](CC(C)C)C(=O)N[C@@]1(C)CCCC=CCCC[C@@](C)(C(=O)N[C@@H](CO)C(=O)N[C@@H](CC(C)C)C(=O)N[C@H](C(=O)N[C@@H](CC(N)=O)C(=O)N[C@@H](CCC(=O)O)C(=O)N[C@@H](CO)C(=O)N[C@@H](CCC(=O)O)C(=O)N[C@@H](CCCCN)C(=O)N[C@@H](CCCNC(=N)N)C(N)=O)C(C)C)NC(=O)[C@H](CCCCN)NC(=O)[C@H](C(C)C)NC(=O)[C@H](CC(=O)O)NC1=O
B11: SP12 (peptide)
peptide: Ac-SAERDLADVK[S5]SLV[S5]ESEKR-NH2
modifications: staple 11-15
SMILES: CC(=O)N[C@@H](CO)C(=O)N[C@@H](C)C(=O)N[C@@H](CCC(=O)O)C(=O)N[C@@H](CCCNC(=N)N)C(=O)N[C@@H](CC(=O)O)C(=O)N[C@@H](CC(C)C)C(=O)N[C@@H](C)C(=O)N[C@@H](CC(=O)O)C(=O)N[C@H](C(=O)N[C@@H](CCCCN)C(=O)N[C@@]1(C)CCCC=CCCC[C@@](C)(C(=O)N[C@@H](CCC(=O)O)C(=O)N[C@@H](CO)C(=O)N[C@@H](CCC(=O)O)C(=O)N[C@@H](CCCCN)C(=O)N[C@@H](CCCNC(=N)N)C(N)=O)NC(=O)[C@H](C(C)C)NC(=O)[C@H](CC(C)C)NC(=O)[C@H](CO)NC1=O)C(C)C
B12: SP22 (peptide)
peptide: Ac-SA[S5]RDL[S5]DVKSSLVNESEKR-NH2
modifications: staple 3-7
SMILES: CC(=O)N[C@@H](CO)C(=O)N[C@@H](C)C(=O)N[C@@]1(C)CCCC=CCCC[C@@](C)(C(=O)N[C@@H](CC(=O)O)C(=O)N[C@H](C(=O)N[C@@H](CCCCN)C(=O)N[C@@H](CO)C(=O)N[C@@H](CO)C(=O)N[C@@H](CC(C)C)C(=O)N[C@H](C(=O)N[C@@H](CC(N)=O)C(=O)N[C@@H](CCC(=O)O)C(=O)N[C@@H](CO)C(=O)N[C@@H](CCC(=O)O)C(=O)N[C@@H](CCCCN)C(=O)N[C@@H](CCCNC(=N)N)C(N)=O)C(C)C)C(C)C)NC(=O)[C@H](CC(C)C)NC(=O)[C@H](CC(=O)O)NC(=O)[C@H](CCCNC(=N)N)NC1=O

Molecular target: T1, C-terminally 6x Histidine-tagged …
Assay: competitive fluorescence polarization, FAM-labelled linear probe as competitor, His-tagged beta-catenin 134-668
Procedure: The following experiments are performed at room temperature unless otherwise noted. First, an assay buffer is prepared composed of 25 mM Tris-Hcl pH 7.5, 200 mM Sodium Chloride, and 5 mM CHAPS. Next, 1M DTT is added to assay buffer to a final concentration of 2 mM. […] Forty μl of this protein stock is added to all but six wells of a 96 well plate (which will serve as the free peptide and Blank). Test competitor peptides are diluted from 1 mM DMSO stocks to 2× working stocks in assay buffer. Further dilutions are made in assay buffer-DMSO as to maintain a constant DMSO concentration in all wells. The dilution is carried out such that the peptides have a working concentration range of 40 μM-0.7 μM (2×). As a benchmark, a linear, non-crosslinked peptide competitor is prepared as above but with a working concentration range of 13-0.7 μM. Fifty μl of the competitor 2× stocks are added to the 40 μl of protein solution previously transferred into the assay 96 well plate. Next, a 10× stock of the fluorescent probe is prepared. The probe is identical to the linear benchmark peptide except for the n-terminal conjugation of a FAM flourophore with Beta-Alanine spacer. A 1 mM DMSO stock of the probe is serially diluted to a final concentration of 25 nM (10×) and 10 μl of this stock is added to all wells except for those that will serve as the blank. The assay plate is stored in the dark and the reaction is allowed to run at room temperature for three hours. The reaction is then read on a Biotek Synergy 2 with the following settings: 100 ms delay, 40 measurements per well, with excitation filters of […], and emission filters of […]. Data is then analyzed in Graphpad Prism.

| IC50 [µM] | Binder |
| --- | --- |
| ≥ 100 | B1 |
| ≥ 100 | B2 |
| ≥ 100 | B3 |
| ≥ 100 | B4 |
| ≥ 100 | B5 |
| ≥ 100 | B6 |
| ≥ 100 | B7 |
| ≥ 100 | B8 |
| ≥ 100 | B9 |
| ≥ 100 | B10 |
| 85 | B11 |
| ≥ 100 | B12 |
